Patent US6936457

Biological target: human neuronal nicotinic acetylcholine receptor α7 subunit (human), P36544
Sequence (P36544 23-502 limits assumed): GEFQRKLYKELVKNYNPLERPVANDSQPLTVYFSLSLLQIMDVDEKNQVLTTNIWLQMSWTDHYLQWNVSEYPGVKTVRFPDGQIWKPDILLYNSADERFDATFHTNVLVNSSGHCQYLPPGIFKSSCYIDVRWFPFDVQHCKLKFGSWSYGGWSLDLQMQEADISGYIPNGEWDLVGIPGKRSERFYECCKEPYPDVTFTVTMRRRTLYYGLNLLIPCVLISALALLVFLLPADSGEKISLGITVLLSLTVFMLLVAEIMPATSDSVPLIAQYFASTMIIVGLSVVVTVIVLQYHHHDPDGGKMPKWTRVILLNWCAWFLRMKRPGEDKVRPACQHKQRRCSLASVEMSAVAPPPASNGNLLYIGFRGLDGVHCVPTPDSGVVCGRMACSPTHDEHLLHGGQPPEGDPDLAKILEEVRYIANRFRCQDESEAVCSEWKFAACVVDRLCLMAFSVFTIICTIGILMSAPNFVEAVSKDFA

B1: α-bungarotoxin, P60615 22-95 (peptide)
chain: IVCHTTATSPISAVTCPPGENLCYRKMWCDAFCSSRGKVVELGCAATCPSKKPYEEVTCCSTDKCNPHPKQRPG
modifications: not checked
IC50: 3 nM
percent of [3H]-MLA binding displaced: 65%
